In one assay the test system is SC macrophage cells. The assay can be described thus: SC macrophage trans-well migration towards ETP transfected MCF7 cells. The assay is classed as cell-based, human. The conditions noted are these: 10, 2, 0.4, 0.08 μg/mL antibody, 2 hr. The procedure:
FIGS. 3A-D. Generation and screening of anti-human endotrophin. (FIG. 3A) MCF7 breast cancer cells (20,000 cells) were plated into a 96-well plate. Cells were then treated with 10 μm cisplatin, 10 μm cisplatin/100 ng/mL endotrophin, and 10 μm cisplatin/100 ng/mL endotrophin/10 μg/mL ETPmAb4 for 24 hr. Cell survival was measured using a CellTiter One Solution Cell Proliferation Assay. Statistical significance of the curve fit parameters was tested using the extra sum of squares F test with P<0.05 considered significant. Goodness of curve fit is described using r2. Mean±SEM, n=3. (FIG. 3B) ETP transfected MCF7 cells (100,000 cells) were plated into a 24-well plate with 500 μL media. Then 4 μL of supernatant was loaded for Western blotting. It is estimated that approximately 1 ng of ETP was loaded, compared with the standard ETP (2 ng band). The concentration yields approximately 0.052 pg secreted ETP/hr/cell. (FIG. 3C) Total RNA was extracted from MCF7, HCC1395, MDAMB231, ZR-75 and MDAMB453 cells. ETP expression was determined by qRT-PCR and normalized to GAPDH. […] Migrated cells were counted after a 2 hr incubation. In all cases, data was represented as mean±SD, and statistical significance (*** p<0.0001) was calculated using an unpaired Student's t-test.
Primary Culture of Human Cells and Transwell Assays. […] Migrated cells were then counted after 2 hr. […]

Assay [1] addresses T1, recombinant endotrophin protein (Homo sapiens, UniProt P12111).
T1 construct: the latter consisting of 77 amino acids at the carboxy-terminal of the COL6α3 chain; CD33 signal peptide (N, cleaved yes); His-tag with EK-cleavage site (N, cleaved yes); purchased Sino Biological, Beijing, China; host or cells: HEK293
The assay can be described thus: Affinity measurement with BLI (Octet RED96). The conditions noted are these: Octet (96-Red), 1:1 binding model. The procedure: FIGS. 12A-B. Kinetic sensorgrams for ETP-mAb4 (FIG. 12A) and each of the humanized antibodies (FIG. 12B). […]
For antibody affinity measurement, antibody (30 μg/mL) was loaded onto the protein A biosensors for 4 min. Following a short baseline in kinetics buffer, the loaded biosensors were exposed to a series of recombinant endotrophin protein at 0.1-200 nM and background subtraction was used to correct for sensor drifting. All experiments were performed with shaking at 1,000 rpm. Background wavelength shifts were measured from reference biosensors that were loaded only with antibody. Kinetic sensorgrams for each antibody are shown in FIGS. 12A&B. ForteBio's data analysis software was used to fit the data to a 1:1 binding model to extract an association rate and dissociation rate. The Kd was calculated using the ratio of koff/kon and the estimated values of […] for endotrophin ETP-mAb4 and 4 humanized ETP-hMab4 antibodies are listed in Table 4.

T1 sequence (P12111 3101-3177): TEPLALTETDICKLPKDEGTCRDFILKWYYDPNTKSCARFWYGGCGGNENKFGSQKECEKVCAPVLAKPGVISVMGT

B1: ETP-mAb4: rabbit monoclonal anti-human endotrophin antibody selected for further study; VH SEQ ID NO: 125, VL SEQ ID NO: 126 (antibody, V domains shown)
VH: SSRVKESGGDLVKPGASLTLTCKASGFSFSSGYYICWVRQAPGKGLEWIACIYGGNNNPYYANWVNGRFTTSKTSSTTVTLQMTNLTGADTATYFCARKDINIGGAYELWGPGTLVTISS
VL: ELVMTQTPASVSEPVGGTVTINCQASQSISSSYLSWYQQKPGQPPKLLIYKASTLASGVPSRFKGSGSGTQFSLTISDLECADAATYYCQYSDWANSYGNAFGGGTEVVVK
Consider B1, for which, in the assay with SC macrophage cells, the “migration of SC macrophages into the bottom chamber” value is “effectively prevented the migration”. Besides, in assay [1], the kdis is given as 2.49 E−04 1/s and the kon is 1.42 E+05 1/Ms.

For the origin of these results see US12331110B2, “Monoclonal antibodies against endotrophin and the use thereof” (THE BOARD OF REGENTS OF THE UNIVERSITY OF TEXAS SYSTEM, priority 2018, dated 2025).
